From publication PMC9482650, “Quantitative fragmentomics allow affinity mapping of interactomes” (Nature Communications, 2022)

T1: RHPN1, Q8TCX5
T1 sequence (Q8TCX5 508-602, limits assumed, looked up): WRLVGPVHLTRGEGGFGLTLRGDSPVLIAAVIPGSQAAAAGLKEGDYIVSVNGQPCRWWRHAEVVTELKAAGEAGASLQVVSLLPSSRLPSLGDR

T2: MPDZ_5, O75970
T2 sequence (O75970 695-796, limits assumed, looked up): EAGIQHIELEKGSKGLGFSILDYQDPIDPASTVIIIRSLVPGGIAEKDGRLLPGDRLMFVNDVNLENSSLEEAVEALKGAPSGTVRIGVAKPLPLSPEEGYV

T3: PDZD2_2, O15018
T3 sequence (O15018 329-429, limits assumed, looked up): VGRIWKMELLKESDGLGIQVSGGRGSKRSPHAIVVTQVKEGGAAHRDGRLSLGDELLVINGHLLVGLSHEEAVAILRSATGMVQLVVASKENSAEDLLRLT

T4: TIAM2, Q8IVF5
T4 sequence (Q8IVF5 885-986, limits assumed, looked up): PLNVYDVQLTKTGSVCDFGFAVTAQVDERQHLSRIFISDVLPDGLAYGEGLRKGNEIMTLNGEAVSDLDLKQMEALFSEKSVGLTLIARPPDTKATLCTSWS

T5: APBA1_1, Q02410
T5 sequence (Q02410 651-752, limits assumed, looked up): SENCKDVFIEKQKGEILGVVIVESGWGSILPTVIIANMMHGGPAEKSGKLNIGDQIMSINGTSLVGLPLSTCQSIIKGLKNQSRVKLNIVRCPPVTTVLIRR

T6: RAPGEF6, Q8TEU7
T6 sequence (Q8TEU7 525-625, limits assumed, looked up): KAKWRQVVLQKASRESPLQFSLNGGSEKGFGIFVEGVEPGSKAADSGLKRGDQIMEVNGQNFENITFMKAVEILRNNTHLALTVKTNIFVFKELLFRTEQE

T7: LNX2_3, Q8N448
T7 sequence (Q8N448 463-564, limits assumed, looked up): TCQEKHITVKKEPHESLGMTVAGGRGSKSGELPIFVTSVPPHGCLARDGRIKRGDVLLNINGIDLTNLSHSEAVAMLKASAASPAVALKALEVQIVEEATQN

T8: MPDZ_12, O75970
T8 sequence (O75970 1857-1958, limits assumed, looked up): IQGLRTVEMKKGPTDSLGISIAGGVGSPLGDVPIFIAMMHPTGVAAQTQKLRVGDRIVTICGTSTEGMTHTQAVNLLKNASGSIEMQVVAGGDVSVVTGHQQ

T9: GRIP1_2, Q9Y3R0
T9 sequence (Q9Y3R0 145-248, limits assumed, looked up): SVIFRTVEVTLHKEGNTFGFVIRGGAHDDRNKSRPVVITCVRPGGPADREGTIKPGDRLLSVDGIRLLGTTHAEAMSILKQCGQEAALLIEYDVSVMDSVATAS

T10: PTPN13_1, Q12923
T10 sequence (Q12923 1088-1188, limits assumed, looked up): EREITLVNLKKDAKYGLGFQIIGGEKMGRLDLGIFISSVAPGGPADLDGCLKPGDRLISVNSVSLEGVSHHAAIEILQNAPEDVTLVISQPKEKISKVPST


Target: MAST2, Q6P0Q8
Test: holdup assay
Parameters: key: below the threshold = too weak to quantify, mostly under pKd 3.1 to 4
Conditions: plain residues with an end cap or a label only (N-terminal biotin on a linker: ado-ado)

Chain of MAST2, Q6P0Q8 (Q6P0Q8 1099-1202): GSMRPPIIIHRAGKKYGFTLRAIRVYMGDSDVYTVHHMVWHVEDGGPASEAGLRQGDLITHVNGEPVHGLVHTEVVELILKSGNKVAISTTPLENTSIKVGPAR

pKd | Binder
5.6 | YAEKRMLTEV [KCNA6, P17658]

Target: T1, RHPN1, Q8TCX5
Test: holdup assay
Parameters: key: below the threshold = too weak to quantify, mostly under pKd 3.1 to 4
Conditions: plain residues with an end cap or a label only (N-terminal biotin on a linker: ado-ado)

pKd | Binder
3.8 | YAEKRMLTEV [KCNA6, P17658]

Target: HTRA2, O43464
Test: holdup assay
Parameters: key: below the threshold = too weak to quantify, mostly under pKd 3.1 to 4
Conditions: plain residues with an end cap or a label only (N-terminal biotin on a linker: ado-ado)

Chain of HTRA2, O43464 (O43464 355-458): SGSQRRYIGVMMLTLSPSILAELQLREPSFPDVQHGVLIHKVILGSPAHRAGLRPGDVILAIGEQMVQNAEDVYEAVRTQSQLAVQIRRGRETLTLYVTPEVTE

pKd | Binder
below the threshold | YAEKRMLTEV [KCNA6, P17658]

Target: Inadl_1, Q8NI35
Test: holdup assay
Parameters: key: below the threshold = too weak to quantify, mostly under pKd 3.1 to 4
Conditions: plain residues with an end cap or a label only (N-terminal biotin on a linker: ado-ado)

Chain of Inadl_1, Q8NI35 (Q8NI35 113-229): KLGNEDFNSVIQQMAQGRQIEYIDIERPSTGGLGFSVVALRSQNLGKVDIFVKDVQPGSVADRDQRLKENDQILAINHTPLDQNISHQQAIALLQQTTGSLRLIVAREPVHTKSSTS

pKd | Binder
below the threshold | YAEKRMLTEV [KCNA6, P17658]

Target: DLG4_1, P78352
Test: holdup assay
Parameters: key: below the threshold = too weak to quantify, mostly under pKd 3.1 to 4
Conditions: plain residues with an end cap or a label only (N-terminal biotin on a linker: ado-ado)

Chain of DLG4_1, P78352 (P78352 62-152): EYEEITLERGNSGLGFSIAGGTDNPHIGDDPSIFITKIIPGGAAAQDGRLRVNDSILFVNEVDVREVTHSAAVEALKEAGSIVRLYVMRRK

pKd | Binder
3.65 | YAEKRMLTEV [KCNA6, P17658]

Target: T2, MPDZ_5, O75970
Test: holdup assay
Parameters: key: below the threshold = too weak to quantify, mostly under pKd 3.1 to 4
Conditions: plain residues with an end cap or a label only (N-terminal biotin on a linker: ado-ado)

pKd | Binder
below the threshold | YAEKRMLTEV [KCNA6, P17658]

Target: MAGI2_2, Q86UL8
Test: holdup assay
Parameters: key: below the threshold = too weak to quantify, mostly under pKd 3.1 to 4
Conditions: plain residues with an end cap or a label only (N-terminal biotin on a linker: ado-ado)

Chain of MAGI2_2, Q86UL8 (Q86UL8 410-522): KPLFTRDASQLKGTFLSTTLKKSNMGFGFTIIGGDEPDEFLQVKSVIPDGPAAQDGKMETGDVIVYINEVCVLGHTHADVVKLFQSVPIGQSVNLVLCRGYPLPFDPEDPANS

pKd | Binder
4.33 | YAEKRMLTEV [KCNA6, P17658]

Target: LNX1_2, Q8TBB1
Test: holdup assay
Parameters: key: below the threshold = too weak to quantify, mostly under pKd 3.1 to 4
Conditions: plain residues with an end cap or a label only (N-terminal biotin on a linker: ado-ado)

Chain of LNX1_2, Q8TBB1 (Q8TBB1 371-470): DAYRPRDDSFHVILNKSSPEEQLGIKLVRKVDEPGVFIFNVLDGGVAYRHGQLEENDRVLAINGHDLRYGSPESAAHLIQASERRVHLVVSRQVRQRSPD

pKd | Binder
3.51 | YAEKRMLTEV [KCNA6, P17658]

Target: PARD3_3, Q8TEW0
Test: holdup assay
Parameters: key: below the threshold = too weak to quantify, mostly under pKd 3.1 to 4
Conditions: plain residues with an end cap or a label only (N-terminal biotin on a linker: ado-ado)

Chain of PARD3_3, Q8TEW0 (Q8TEW0 582-685): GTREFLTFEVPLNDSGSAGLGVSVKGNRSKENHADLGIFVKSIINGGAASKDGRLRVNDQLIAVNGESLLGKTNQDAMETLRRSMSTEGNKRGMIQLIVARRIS

pKd | Binder
below the threshold | YAEKRMLTEV [KCNA6, P17658]

Target: NHERF4_1, Q86UT5-2
Test: holdup assay
Parameters: key: below the threshold = too weak to quantify, mostly under pKd 3.1 to 4
Conditions: plain residues with an end cap or a label only (N-terminal biotin on a linker: ado-ado)

Chain of NHERF4_1, Q86UT5-2 (Q86UT5 other isoform, or with tags, fused parts or gaps): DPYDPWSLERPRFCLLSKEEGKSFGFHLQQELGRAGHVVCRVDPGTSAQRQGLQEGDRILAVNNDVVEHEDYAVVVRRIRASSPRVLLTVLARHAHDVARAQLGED

pKd | Binder
below the threshold | YAEKRMLTEV [KCNA6, P17658]

Target: LAP2, Q96RT1
Test: holdup assay
Parameters: key: below the threshold = too weak to quantify, mostly under pKd 3.1 to 4
Conditions: plain residues with an end cap or a label only (N-terminal biotin on a linker: ado-ado)

Chain of LAP2, Q96RT1 (Q96RT1 other isoform, or with tags, fused parts or gaps): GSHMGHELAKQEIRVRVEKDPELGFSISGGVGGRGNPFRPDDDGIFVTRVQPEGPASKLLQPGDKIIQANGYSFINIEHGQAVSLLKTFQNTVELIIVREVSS

pKd | Binder
below the threshold | YAEKRMLTEV [KCNA6, P17658]

Target: GRIP2_7, Q9C0E4
Test: holdup assay
Parameters: key: below the threshold = too weak to quantify, mostly under pKd 3.1 to 4
Conditions: plain residues with an end cap or a label only (N-terminal biotin on a linker: ado-ado)

Chain of GRIP2_7, Q9C0E4 (Q9C0E4 934-1023): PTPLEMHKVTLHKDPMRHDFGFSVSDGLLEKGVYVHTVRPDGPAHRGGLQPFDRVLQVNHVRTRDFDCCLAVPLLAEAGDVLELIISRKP

pKd | Binder
below the threshold | YAEKRMLTEV [KCNA6, P17658]

Target: T3, PDZD2_2, O15018
Test: holdup assay
Parameters: key: below the threshold = too weak to quantify, mostly under pKd 3.1 to 4
Conditions: plain residues with an end cap or a label only (N-terminal biotin on a linker: ado-ado)

pKd | Binder
4.34 | YAEKRMLTEV [KCNA6, P17658]

Target: T4, TIAM2, Q8IVF5
Test: holdup assay
Parameters: key: below the threshold = too weak to quantify, mostly under pKd 3.1 to 4
Conditions: plain residues with an end cap or a label only (N-terminal biotin on a linker: ado-ado)

pKd | Binder
3.99 | YAEKRMLTEV [KCNA6, P17658]

Target: SNX27, Q96L92
Test: holdup assay
Parameters: key: below the threshold = too weak to quantify, mostly under pKd 3.1 to 4
Conditions: plain residues with an end cap or a label only (N-terminal biotin on a linker: ado-ado)

pKd | Binder
below the threshold | YAEKRMLTEV [KCNA6, P17658]

Target: DLG2_3, Q15700
Test: holdup assay
Parameters: key: below the threshold = too weak to quantify, mostly under pKd 3.1 to 4
Conditions: plain residues with an end cap or a label only (N-terminal biotin on a linker: ado-ado)

pKd | Binder
3.98 | YAEKRMLTEV [KCNA6, P17658]

Target: FRMPD2_1, Q68DX3
Test: holdup assay
Parameters: key: below the threshold = too weak to quantify, mostly under pKd 3.1 to 4
Conditions: plain residues with an end cap or a label only (N-terminal biotin on a linker: ado-ado)

Chain of FRMPD2_1, Q68DX3 (Q68DX3 770-861): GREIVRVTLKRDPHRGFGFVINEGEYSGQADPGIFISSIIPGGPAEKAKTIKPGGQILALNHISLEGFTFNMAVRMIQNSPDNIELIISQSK

pKd | Binder
below the threshold | YAEKRMLTEV [KCNA6, P17658]

Target: T5, APBA1_1, Q02410
Test: holdup assay
Parameters: key: below the threshold = too weak to quantify, mostly under pKd 3.1 to 4
Conditions: plain residues with an end cap or a label only (N-terminal biotin on a linker: ado-ado)

pKd | Binder
below the threshold | YAEKRMLTEV [KCNA6, P17658]

Target: T6, RAPGEF6, Q8TEU7
Test: holdup assay
Parameters: key: below the threshold = too weak to quantify, mostly under pKd 3.1 to 4
Conditions: plain residues with an end cap or a label only (N-terminal biotin on a linker: ado-ado)

pKd | Binder
3.48 | YAEKRMLTEV [KCNA6, P17658]

Target: NOS1, P29475
Test: holdup assay
Parameters: key: below the threshold = too weak to quantify, mostly under pKd 3.1 to 4
Conditions: plain residues with an end cap or a label only (N-terminal biotin on a linker: ado-ado)

Chain of NOS1, P29475 (P29475 9-101): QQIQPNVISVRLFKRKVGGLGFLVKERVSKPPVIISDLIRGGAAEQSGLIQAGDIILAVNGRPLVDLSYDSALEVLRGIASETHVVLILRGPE

pKd | Binder
below the threshold | YAEKRMLTEV [KCNA6, P17658]

Target: T7, LNX2_3, Q8N448
Test: holdup assay
Parameters: key: below the threshold = too weak to quantify, mostly under pKd 3.1 to 4
Conditions: plain residues with an end cap or a label only (N-terminal biotin on a linker: ado-ado)

pKd | Binder
below the threshold | YAEKRMLTEV [KCNA6, P17658]

Target: DLG4_3, P78352
Test: holdup assay
Parameters: key: below the threshold = too weak to quantify, mostly under pKd 3.1 to 4
Conditions: plain residues with an end cap or a label only (N-terminal biotin on a linker: ado-ado)

Chain of DLG4_3, P78352 (P78352 306-403): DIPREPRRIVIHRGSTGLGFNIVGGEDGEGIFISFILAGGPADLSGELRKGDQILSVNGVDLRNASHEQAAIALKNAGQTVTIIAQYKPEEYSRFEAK

pKd | Binder
3.74 | YAEKRMLTEV [KCNA6, P17658]

Target: T8, MPDZ_12, O75970
Test: holdup assay
Parameters: key: below the threshold = too weak to quantify, mostly under pKd 3.1 to 4
Conditions: plain residues with an end cap or a label only (N-terminal biotin on a linker: ado-ado)

pKd | Binder
3.55 | YAEKRMLTEV [KCNA6, P17658]

Target: T9, GRIP1_2, Q9Y3R0
Test: holdup assay
Parameters: key: below the threshold = too weak to quantify, mostly under pKd 3.1 to 4
Conditions: plain residues with an end cap or a label only (N-terminal biotin on a linker: ado-ado)

pKd | Binder
below the threshold | YAEKRMLTEV [KCNA6, P17658]

Target: GRIP2_3, Q9C0E4
Test: holdup assay
Parameters: key: below the threshold = too weak to quantify, mostly under pKd 3.1 to 4
Conditions: plain residues with an end cap or a label only (N-terminal biotin on a linker: ado-ado)

Chain of GRIP2_3, Q9C0E4 (Q9C0E4 238-339): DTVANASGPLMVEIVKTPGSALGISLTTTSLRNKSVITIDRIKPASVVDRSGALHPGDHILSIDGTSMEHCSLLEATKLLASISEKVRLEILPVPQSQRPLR

pKd | Binder
below the threshold | YAEKRMLTEV [KCNA6, P17658]

Target: FRMPD3, Q5JV73
Test: holdup assay
Parameters: key: below the threshold = too weak to quantify, mostly under pKd 3.1 to 4
Conditions: plain residues with an end cap or a label only (N-terminal biotin on a linker: ado-ado)

Chain of FRMPD3, Q5JV73 (Q5JV73 12-100): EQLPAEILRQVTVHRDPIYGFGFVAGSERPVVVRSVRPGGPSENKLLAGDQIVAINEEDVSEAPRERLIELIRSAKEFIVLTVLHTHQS

pKd | Binder
below the threshold | YAEKRMLTEV [KCNA6, P17658]

Target: T10, PTPN13_1, Q12923
Test: holdup assay
Parameters: key: below the threshold = too weak to quantify, mostly under pKd 3.1 to 4
Conditions: plain residues with an end cap or a label only (N-terminal biotin on a linker: ado-ado)

pKd | Binder
below the threshold | YAEKRMLTEV [KCNA6, P17658]

Target: DLG1_1, Q12959
Test: holdup assay
Parameters: key: below the threshold = too weak to quantify, mostly under pKd 3.1 to 4
Conditions: plain residues with an end cap or a label only (N-terminal biotin on a linker: ado-ado)

pKd | Binder
3.91 | YAEKRMLTEV [KCNA6, P17658]
